The target of this data set is GST-SEB-1 (Neurospora crassa, UniProt Q7SH58 1-575). Nature of the data set: competition. As to conditions: protein: recombinant; tags: N-terminal GST (pGEX-4T1); blunt.

The source of these data is article PMC4856084, “The SEB-1 Transcription Factor Binds to the STRE Motif in Neurospora crassa and Regulates a Variety of Cellular Processes Including the Stress Response and Reserve Carbohydrate Metabolism”.

B1: STRE1 oligonucleotide (18 bp) (dsDNA)
DNA 1: GGGATCCCCCTTGAATAC
DNA 2: GTATTCAAGGGGGATCCC
Take B1: the binding result is on record as “binds”.
